Read-outs that look alike come from different tables or passages of the source.
B1: sepX-2 promoter (cryo-EM, RPo-2) (dsDNA)
DNA 1: GTGATATCAGCCAGATCGTGCGACACACCGGGCCAATTGGCTTGACACC
DNA 2: GGTGTCAAGCCAATTGGCCCGGTGTGTCGCACGATCTGGCTGATATCAC
B2: sepX promoter (cryo-EM, RPo) (dsDNA)
DNA 1: GTGATATCAGCCAGATCGTGCGACACACCGGGCCAATTGGCCGATGCCGTCCCGCGAACCCCTCTACCGTGTGAGGCGTGAGCAGCAGCGGCCTCATCGC
DNA 2: GCGATGAGGCCGCTGCTGCTCACGCCTCACACGGTAGAGGGGTTCGCGGGACGGCATCGGCCAATTGGCCCGGTGTGTCGCACGATCTGGCTGATATCAC

What was measured:
[1] = target: T1, WhiA;WhiB;sigmaA (sigma HrdB);RbpA;RNA polymerase core (alpha2 beta beta' omega) (Streptomyces venezuelae;Streptomyces …, UniProt F2RGQ4;F2R611;F2R7X6;F2RBH1;F2RJV9;F2RIS5;F2RIS6;F2RCK7 …, ||||); assay: cryo-EM
[2] = target: T1, WhiA;WhiB;sigmaA (sigma HrdB);RbpA;RNA …; assay: cryo-EM; remark: listed apart in the source

Binder | binding result [1] | binding result [2]
B1 | binds | –
B2 | – | binds

— PMC10243135
